Tested on: IgG Ab to PEG in patient plasma
Assay: Indirect ELISA detection of APAs in patient plasma against Adagen-coated plates
Type: binding, human
Conditions: 5 replicates
Description: Informed signed consent was obtained from either the patient or from next of kin. (A) ELISA detection of APAs: Plasma samples diluted 1:21 in 1% BSA in PBS were tested by ELISA for IgG Ab to PEG, but using Adagen® (Sigma Tau Pharmaceuticals, Gaithersburg, Md.) rather than Krystexxa® as the antigen. (B) Surface fluoroimmunoassay against patient APAs: Polymer-coated surfaces were incubated with patient plasma samples diluted 1:3 in PBS for 1 h, and then washed 3 times with wash buffer (0.5% CHAPS in PBS). Next, the surfaces were exposed to a 1 μg/mL solution of Cy5-goat-anti-human IgG detection Ab (R & D Systems, Inc.) for 30 min. Surfaces were then rinsed again to remove any loosely-bound proteins, centrifuged at 4800 rpm for 15 s to wick away excess liquid, then allowed to dry under ambient conditions. Fluorescence imaging and analysis of all samples was performed using an Axon Genepix 4400 tabletop scanner and ImageJ Fiji as described above.
We performed an indirect ELISA on these patient plasma samples to quantify the level of IgG binding to Adagen (PEGylated adenosine deaminase).

B1: ADAGEN: a PEGylated adenosine deaminase for treating severe combined immunodeficiency disease (SCID) (conjugate)
chain: AQTPAFNKPKVELHVHLDGAIKPETILYYGRKRGIALPADTPEELQNIIGMDKPLSLPEFLAKFDYYMPAIAGCREAVKRIAYEFVEMKAKDGVVYVEVRYSPHLLANSKVEPIPWNQAEGDLTPDEVVSLVNQGLQEGERDFGVKVRSILCCMRHQPSWSSEVVELCKKYREQTVVAIDLAGDETIEGSSLFPGHVKAYAEAVKSGVHRTVHAGEVGSANVVKEAVDTLKTERLGHGYHTLEDATLYNRLRQENMHFEVCPWSSYLTGAWKPDTEHPVVRFKNDQVNYSLNTDDPLIFKSTLDTDYQMTKNEMGFTEEEFKRLNINAAKSSFLPEDEKKELLDLLYKAYGMPSPA
Pt# 1, APA neg, sample 929-237-01
  OD 405 nm Avg: 0.149
Pt# 2, APA pos, sample 929-219-07
  OD 405 nm Avg: 0.714
Pt# 3, APA pos, sample 929-237-12
  OD 405 nm Avg: 1.243
Pt# 4, APA pos, sample 929-241-07
  OD 405 nm Avg: 1.679
Pt# 5, APA pos, sample 929-218-21
  OD 405 nm Avg: 3.059
